This test addresses 天然TSLP. The test can be described thus: cell-based or functional assay.

In turn, Tezepelumab (antibody) had a 抑制天然TSLP诱导的SW756-STAT5-Luciferase报告基因细胞STAT5磷酸化活性的IC50 of 1.45 ng/mL.
